# According to patent US20170335333:
# Legend:
# [1] = test system: Microcin S peptide
# [2] = test system: McsS-YebF fusion peptide
substance,measurement,setting,value
Microcin immunity protein (mcsI),OD600 growth of E. coli Top10 after induction with 0.125% v/v L-arabinose,[1],the OD600 reading was restored significantly compared to the un-induced and control cultures
same,OD600 growth of E. coli Top10 after induction with 0.125% v/v L-arabinose,[2],the OD600 reading was restored significantly compared to the un-induced and control cultures
